Experimental data: publication PMC6522968

Molecular target: Glu387 (UniProt position 387, YMYVTENGIAD)
Test: kinetics
Details: 65 °C; 50.0 mM sodium citrate (pH 3.0–5.6), sodium phosphate (pH 6.0–8.0) and KCl/borate (pH 8.0–10.0); enzyme-substrate complex with 4Np-Glc, as described by the authors; folded, active enzyme

Substance | pKa
beta-glycosidase (Ssβ-gly) (Sulfolobus solfataricus (Saccharolobus solfataricus)) | 3.41 ± 0.13
beta-glycosidase (Ssβ-gly) H150A mutant (A150) (Sulfolobus solfataricus (Saccharolobus solfataricus); H150A) | 5.29 ± 0.18
